Experimental data from patent US20090226525.

Experiments:
Test in all cases: EMSA
[1] = biological target: HBV core protein K7 mutant (truncated core, C-terminal 7-lysine tail, E77C) (Hepatitis B virus) (UniProt P03149); conditions: phosphate (P) at end of the sequence; 20 mM NaHCO3 pH 9.5, room temperature, agarose gel
[2] = biological target: HBV core protein K11 mutant (truncated core, C-terminal 11-lysine tail, E77C) (Hepatitis B virus) (UniProt P03149); conditions: phosphate (P) at end of the sequence; 20 mM NaHCO3 pH 9.5, room temperature, agarose gel
[3] = biological target: HBV core protein K9 mutant (truncated core, C-terminal 9-lysine tail, E77C) (Hepatitis B virus) (UniProt P03149); conditions: phosphate (P) at end of the sequence; 20 mM Tris pH 7.7 (p269 states 10 mM Tris), room temperature, agarose gel

“GGAAAGACUGUUCCAAAAAUUUUCCUUUCUGACAAGGUUUUU / AAAAACCUUGUCAGAAAGGAAAAUUUUUGGAACAGUCUUUCC [siGLO Cyclophilin B siRNA]” showed a Kd [1] of 370 nM, a Kd [2] of 69 nM and a Kd [3] of 115 nM.
